Results as given in the supplement of paper PMC7877785.
± gives the uncertainty stated by the source.

Assay: self-splicing fitness, log relative to wild type (ln ratio); higher = more splicing; Tetrahymena group I intron in knt gene, E. coli kanamycin selection, DiMSum; sequences stand for … in CUCUCU…GGAGGGAAAAGUUAUCAGGCAUGCACCUGGUAGCUAGUCUUUAAACCAAUAGAUUGCAUCGGUUUAAAAGGCAAGACCGUCAAAUUGCGGGAAAGGGGUCAACAGCCGUUCAGUACCAAGUCUCAGGGGAAACUUUGAGAUGGCCUUGCAAAGGGUAUGGUAAUAAGCUGACGGACAUGGUCCUAACCACGCAGCCAAGUCCUAAGUCAACAGAUCUUCUGUUGAUAUGGAUGCAGUUCACAGACUAAAUGUCGGUCGGGGAAGAUGUAUUCUUCUCAUAAGAUAUAGUCGGACCUCUCCUUAAUGGGAGCUAGCGGAUGAAGUGAUGCAACACUGGAGCCGCUGGGAACUAAUUUGUAUGCGAAAGUAUAUUGAUUAGUUUUGGAGUACUCGUGGUCG
Method in brief: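 Library with all eight P1ex-region intron nucleotides randomised, intron inside the knt kanamycin-resistance gene on pET-22b(+), in E. coli BL21(DE3). Cells grew overnight at 37°C or 30°C on LB agar with or without 25 μg/mL kanamycin (plus 100 μg/mL carbenicillin, 50 μM IPTG, 0.2% rhamnose), in six replicate transformations. Pooled colonies were amplicon-sequenced on Illumina HiSeq 2500. DiMSum fitness is the error-weighted combination of wild-type-normalised replicate fold changes, kanamycin versus none.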

Sequence	self-splicing fitness (ln) (30 °C)	self-splicing fitness (ln) (37 °C)
UGUGAGCAAUAUUACGCCAG	-2.23 ± 0.32	-2.01 ± 0.34
UGUGAGCAAUAUUACGCCUC	-1.83 ± 0.41	–
UGUGAGCAAUAUUACGCUAA	-2.39 ± 0.17	-2.04 ± 0.23
UGUGAGCAAUAUUACGGAAU	-3.76 ± 0.32	-2.04 ± 0.23
UGUGAGCAAUAUUACGUGAA	–	-1.69 ± 0.23
UGUGAGCAAUAUUACGUGCC	-2.51 ± 0.3	–
UGUGAGCAAUAUUACGUGCU	-3.34 ± 0.29	-3.41 ± 0.33
UGUGAGCAAUAUUACGUGUA	-1.49 ± 0.29	-1.46 ± 0.28
UGUGAGCAAUAUUACGUUAA	-2.97 ± 0.31	-2.44 ± 0.37
UGUGAGCAAUAUUACGUUGC	–	-1.57 ± 0.37
UGUUAGCAAUAUUACGAACA	-1.08 ± 0.2	-1.15 ± 0.32
UGUUAGCAAUAUUACGAAGU	-3.08 ± 0.13	-2.76 ± 0.19
UGUUAGCAAUAUUACGAAUC	-2.97 ± 0.48	–
UGUUAGCAAUAUUACGACCU	-0.58 ± 0.16	0.317 ± 0.2
UGUUAGCAAUAUUACGAGGA	–	-1.92 ± 0.21
UGUUAGCAAUAUUACGAGUA	-1.32 ± 0.13	-0.347 ± 0.13
UGUUAGCAAUAUUACGAUAA	-0.767 ± 0.17	-0.345 ± 0.16
UGUUAGCAAUAUUACGAUCU	-0.736 ± 0.088	-0.148 ± 0.12
UGUUAGCAAUAUUACGCCGA	-1.18 ± 0.17	-1.21 ± 0.15
UGUUAGCAAUAUUACGCUCG	-0.015 ± 0.18	-0.0235 ± 0.21
UGUUAGCAAUAUUACGGAUC	-2.29 ± 0.35	-1.81 ± 0.27
UGUUAGCAAUAUUACGGCGU	-0.742 ± 0.1	-0.892 ± 0.14

Sequence	self-splicing fitness (ln) (30 °C)	self-splicing fitness (ln) (37 °C)
UGUUAGCAAUAUUACGGUCG	-0.217 ± 0.15	0.99 ± 0.18
UGUUAGCAAUAUUACGGUUC	-1.02 ± 0.24	-1.25 ± 0.48
UGUUAGCAAUAUUACGUACA	-0.999 ± 0.11	0.16 ± 0.13
UGUUAGCAAUAUUACGUAGA	-2.29 ± 0.12	-0.809 ± 0.14
UGUUAGCAAUAUUACGUAGU	-3.48 ± 0.33	-2.22 ± 0.27
UGUUAGCAAUAUUACGUCAU	-2.42 ± 0.3	-1.35 ± 0.24
UGUUAGCAAUAUUACGUUAU	-2.78 ± 0.16	-2.67 ± 0.19
UGUUAGCAAUAUUACGUUCU	-1.29 ± 0.14	-0.157 ± 0.16
UUAAAGCAAUAUUACGAAAA	-0.945 ± 0.057	-0.761 ± 0.08
UUAAAGCAAUAUUACGAACA	-0.0579 ± 0.13	0.708 ± 0.18
UUAAAGCAAUAUUACGAACG	0.275 ± 0.12	0.794 ± 0.16
UUAAAGCAAUAUUACGAACU	-0.567 ± 0.11	-0.0402 ± 0.12
UUAAAGCAAUAUUACGACUC	-0.15 ± 0.12	-0.0274 ± 0.15
UUAAAGCAAUAUUACGAGAG	-0.988 ± 0.061	-0.259 ± 0.11
UUAAAGCAAUAUUACGCCGG	-0.245 ± 0.12	0.421 ± 0.18
UUAAAGCAAUAUUACGCGCU	-0.179 ± 0.1	-0.107 ± 0.11
UUAAAGCAAUAUUACGCGGA	-0.811 ± 0.097	0.458 ± 0.1
UUAAAGCAAUAUUACGCGGG	-0.482 ± 0.11	-1.29 ± 0.13
UUAAAGCAAUAUUACGCGUA	-0.515 ± 0.12	0.118 ± 0.14
UUAAAGCAAUAUUACGCUCG	0.194 ± 0.12	0.654 ± 0.15
UUAAAGCAAUAUUACGGCCG	0.199 ± 0.14	0.0811 ± 0.16
UUAAAGCAAUAUUACGGGUA	-0.431 ± 0.069	0.283 ± 0.08
